Data published in PMC9297946.

Molecular target: extracellular domain (25-250) of the human EPO receptor EPOR (human) (UniProt P19235)
Experiment: SEC + other: RP-HPLC-MS of the isolated complex after dissociation; proteins mixed in solution under dilute conditions (about 0.3 mg EPOR per mL); gel filtration over an analytical Superdex 75 column; complex peak analysed by non-reducing SDS-PAGE, then dissociated with 0.2 % TFA (1 h) and analysed by RP-HPLC-MS for the ratio of the two proteins

stoichiometry N	Substance
1 EPO:EPOR	EPO A (synthetic asialo glycoform of human erythropoietin 1-166 with three biantennary N-glycans terminating with galactose) (from UniProt P01588 28-193) (ligand)
1 EPO:EPOR	EPO S (synthetic sialylated glycoform of human erythropoietin 1-166 with three alpha-2,6-sialylated biantennary N-glycans) (from UniProt P01588 28-193) (ligand)
